Measured values as given in publication PMC12102759.

B1: PEX5 peptide 108-123 (Peroxisomal targeting signal 1 receptor), 16-mer library wild type / PEX14 Pex14 (PEX14 PEX14, residues 16-84) (parent)
chain 1: GVADLALSENWAQEFL
chain 2: TPGSENVLPREPLIATAVKFLQNSRVRQSPLATRRAFLKKKGLTDEEIDMAFQQSGTAADEPSSLGPAT
B2: PAIP1 peptide 124-139 (Polyadenylate-binding protein-interacting protein 1), 16-mer library wild type / PABPC1 PABC (PABPC1 PABC domain, residues 544-623) (parent)
chain 1: LMSKLSVNAPEFYPSG
chain 2: PLTASMLASAPPQEQKQMLGERLFPLIQAMHPTLAGKITGMLLEIDNSELLHMLESPESLRSKVDEAVAVLQAHQAKEAA

Variants of: B1
Test: proteomic peptide phage display deep mutational scan (ProP-PD DMS): M13 P8 16-mer library selected against immobilised GST-tagged bait for four days (rounds), NGS of the eluted pools per day and pseudo-replica
Conditions: with PEX14 Pex14 (PEX14 PEX14, residues 16-84); bait immobilised on MaxiSorp plates (10 µg), library pre-cleared on GST, 2 h binding at 4 °C, five washes; one round per day, days 1-4; value from days 2 and 3; scale: average fractional NGS count over selection days 2 and 3
chain 1 GVADLALSENWAQEKL gave a screen value of 0. chain 1 GVADLALSENWAQELL gave a screen value of 0.000134. chain 1 GVADLALSINWAQEFL showed a screen value of 0. chain 1 GVADLALSGNWAQEFL showed a screen value of 0.000125. chain 1 GVADLALSSNWAQEFL showed a screen value of 0. chain 1 GVADLALSNNWAQEFL was tested, and the screen value was 0.000239. For chain 1 GVADLALSQNWAQEFL, the screen value was 0. Work on chain 1 GVADLALSVNWAQEFL yielded a screen value of 0.000378. For chain 1 GVADLALSLNWAQEFL, the screen value was 0.000321. In the case of chain 1 GVADLALSYNWAQEFL, the screen value is reported as 9.07e-05. With chain 1 GVADLALSFNWAQEFL the screen value was 0.000305. For chain 1 GVADLALSTNWAQEFL, the screen value was 9.07e-05. For chain 1 GVADLALSDNWAQEFL, the screen value was 0.000711. chain 1 GVADLALSRNWAQEFL gave a screen value of 0. chain 1 GVADLALSMNWAQEFL gave a screen value of 0.000152. Work on chain 1 GVADLALSENWAQDFL yielded a screen value of 0.000196. For chain 1 GVADLALSENWAQQFL, the screen value was 0.00136. In the case of chain 1 GVADLALSENWAQWFL, the screen value is reported as 0.00347. Variant chain 1 GVADLALSENWAQHFL has a screen value of 0.000765. Work on chain 1 GVADLALSENWAQLFL yielded a screen value of 0.000529. chain 1 GVADLALSENWAQYFL showed a screen value of 0.00013. chain 1 GVADLALSENWAQGFL gave a screen value of 0.000243. chain 1 GVADLALSENWAQKFL showed a screen value of 0.00049. Variant chain 1 GVADLALSENWAQFFL has a screen value of 0.000333. chain 1 GVADLALSENWAQRFL showed a screen value of 0.00542. chain 1 GVADLALSENWAQPFL was tested, and the screen value was 0. Variant chain 1 GVADLALSENWAQVFL has a screen value of 0.000334. In the case of chain 1 GVADLALSENWAQAFL, the screen value is reported as 0.00268. chain 1 GVADLALSENWAQTFL gave a screen value of 0.000432. Work on chain 1 GVADLALSENWAQSFL yielded a screen value of 0.00161. Work on chain 1 GVADLALSENWAQIFL yielded a screen value of 0.000908. With chain 1 GVADLASSENWAQEFL the screen value was 0.00013. In the case of chain 1 GVADLAQSENWAQEFL, the screen value is reported as 0. chain 1 GVADLAGSENWAQEFL showed a screen value of 0.000778. Variant chain 1 GVADLAVSENWAQEFL has a screen value of 0.000339. Variant chain 1 GVADLANSENWAQEFL has a screen value of 0. With chain 1 GVADLAKSENWAQEFL the screen value was 0.000262. Variant chain 1 GVADLAHSENWAQEFL has a screen value of 0. Work on chain 1 GVADLAPSENWAQEFL yielded a screen value of 0.000675. chain 1 GVADLALQENWAQEFL gave a screen value of 0. In the case of chain 1 GVADLALEENWAQEFL, the screen value is reported as 0.000967. Work on chain 1 GVADLALWENWAQEFL yielded a screen value of 9.4e-05. chain 1 GVADLALKENWAQEFL was tested, and the screen value was 0. In the case of chain 1 GVADLALAENWAQEFL, the screen value is reported as 0.000717. With chain 1 GVADLALGENWAQEFL the screen value was 0.000241. With chain 1 GVADLALYENWAQEFL the screen value was 0.0012. chain 1 GVADLALDENWAQEFL showed a screen value of 0. chain 1 GVADLALPENWAQEFL showed a screen value of 9.07e-05. chain 1 GVADLALHENWAQEFL gave a screen value of 0.0106. With chain 1 GVADLALIENWAQEFL the screen value was 0.00069. chain 1 GVADLFLSENWAQEFL showed a screen value of 0.000385. chain 1 GVADLVLSENWAQEFL gave a screen value of 0. chain 1 GVADLHLSENWAQEFL was tested, and the screen value was 0.000488. chain 1 GVADLELSENWAQEFL gave a screen value of 0. For chain 1 GVADLYLSENWAQEFL, the screen value was 0. Work on chain 1 GVADLLLSENWAQEFL yielded a screen value of 0.000211. chain 1 GVADLQLSENWAQEFL gave a screen value of 0.000383. chain 1 GVWDLALSENWAQEFL was tested, and the screen value was 7.47e-05. For chain 1 GVPDLALSENWAQEFL, the screen value was 0.000212. chain 1 GVDDLALSENWAQEFL gave a screen value of 0. Work on chain 1 GVFDLALSENWAQEFL yielded a screen value of 0. Variant chain 1 GVQDLALSENWAQEFL has a screen value of 0.000248. Variant chain 1 GVEDLALSENWAQEFL has a screen value of 7.71e-05. chain 1 GVHDLALSENWAQEFL showed a screen value of 0.000109. Variant chain 1 GVRDLALSENWAQEFL has a screen value of 0. Variant chain 1 GVSDLALSENWAQEFL has a screen value of 0.000118. Work on chain 1 GVKDLALSENWAQEFL yielded a screen value of 0.000328. Work on chain 1 GKADLALSENWAQEFL yielded a screen value of 0. chain 1 GWADLALSENWAQEFL was tested, and the screen value was 0. chain 1 GIADLALSENWAQEFL gave a screen value of 0. For chain 1 GNADLALSENWAQEFL, the screen value was 0. chain 1 GEADLALSENWAQEFL gave a screen value of 0.000749. In the case of chain 1 GYADLALSENWAQEFL, the screen value is reported as 0.00067. chain 1 GRADLALSENWAQEFL showed a screen value of 0. chain 1 GQADLALSENWAQEFL gave a screen value of 0.000476. chain 1 GTADLALSENWAQEFL was tested, and the screen value was 0.

Variants of: B2
Test: as above
Conditions: with PABPC1 PABC (PABPC1 PABC domain, residues 544-623); bait immobilised on MaxiSorp plates (10 µg), library pre-cleared on GST, 2 h binding at 4 °C, five washes; one round per day, days 1-4; value from days 2 and 3; keep out of graded; scale: average fractional NGS count over selection days 2 and 3
Variant chain 1 LMSKLSVNMPEFYPSG has a screen value of 0. Variant chain 1 LMSKLSVNGPEFYPSG has a screen value of 0. Work on chain 1 LMSKLSVNVPEFYPSG yielded a screen value of 8.33e-05. Work on chain 1 LMSKLSVNTPEFYPSG yielded a screen value of 0.000154. chain 1 LMSKLSVNLPEFYPSG gave a screen value of 0. With chain 1 LMSKESVNAPEFYPSG the screen value was 0.00011. Work on chain 1 LMSKFSVNAPEFYPSG yielded a screen value of 7.31e-05. In the case of chain 1 LMSKISVNAPEFYPSG, the screen value is reported as 6.08e-05. With chain 1 LMSKLSVNAPLFYPSG the screen value was 0.000185. With chain 1 LMSKLSVNAPHFYPSG the screen value was 0.000179. For chain 1 LMSKLSVNAPWFYPSG, the screen value was 0. For chain 1 LMSKLSVNAPEFYPSP, the screen value was 0.000264. For chain 1 LMSKLSVNAPEFYPSL, the screen value was 0.000165. chain 1 LMSKLSVNAPEAYPSG was tested, and the screen value was 0. For chain 1 LMSKLSVNAPEDYPSG, the screen value was 0. chain 1 LMSWLSVNAPEFYPSG showed a screen value of 0.000136. Work on chain 1 LMSFLSVNAPEFYPSG yielded a screen value of 0.000173. For chain 1 LMSSLSVNAPEFYPSG, the screen value was 0.000112.
